This data set is described as follows: soluble fraction after stress (log2 fold change); higher = more stays soluble; pooled small domains, quantitative proteomics. The settings on record: stress: 75 degC.

The text below walks through data of the domain aggregation screens of Martell et al. (2025).
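Note: 20 min heating vs room temperature control held 20 min.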

In the case of “HMSTEEYDRGYEQGLEEAAKADDAWVANLIKIYSQNTPESMPETMKGRLDAFLYEQQRRAQSVPEM”, the “soluble fraction (log2)” value came to 0.918.

“HMSTIAAMADPRAWALEMLGFPPGTVKPSKREIQVRFRESLRDVHPDHGGDSRTASASINDLSEARRVLLS”: the “soluble fraction (log2)” value is -0.36.

On to “HMSTLGIRIKHYRTDSNLTQKELAGLINVKRDALANWETDRALPDVMNLKKLAEVFQVSTDELLQV”, for which the “soluble fraction (log2)” value was -1.02.

For “HMSTLTGTQRAAVVLMQMSPPNAARVMAQFTDAEAEEIAAEIVRLRKVDPEVAEQIMKDFHEAALSS”, the “soluble fraction (log2)” value is -0.226.

Turning to “HMSTLTLTSGTYAVGENIKAGKYTIMGSGSIAISSSGKARVNSNLTADRKDYVLNDDETIKIKGKAQFIPI”, the “soluble fraction (log2)” value was -0.315.

For “HMSTMKIVRVKSNLKIGQEITSKDIEVVEVGAYNMPSEVMKNSEDVIGKYASAEMIKGEYVLAAKISDTP”, the “soluble fraction (log2)” value came out at 0.151.

With “HMSTMNRLPRHEQILKLVRANGFMPIEELARLLDVTPQTIRRDINTLSEENLLRRFHGGAALGPSVE”, the “soluble fraction (log2)” value is -0.371.

On to “HMSTMTGTVDTPGASLNVRTGAWGPIVGQLAHGSKVTIIGSSGDWFKISYNGATRYVHKNYVNTT”, for which the “soluble fraction (log2)” value was -0.683.

Regarding “HMSTMVEIPNVVGMTIKEAKEALGNLGLSISKISGSNEDSAIVTEVSPAPGSSVKRDESITLVGQPK”, the “soluble fraction (log2)” value is 0.683.

Turning to “HMSTPAKVTPTNPIVKQLFNAAETQIKNKDIQNAIASYEKADTLTTDEKVKQYIHYQLSTLKDDN”, the “soluble fraction (log2)” value is -0.0812.

Take “HMSTPERQEVLDILKRQGEMTPLQIAGQISRTSKSVSNILSKLKREGFVANGAKYGSWVSTES”: the “soluble fraction (log2)” value was -0.0675.

On to “HMSTPTVDTKTKLDLYNLLYKKDLNYLDAYNFVLDNFGSDNIDIMFKMLGLDFTNWVIENKPE”, for which the “soluble fraction (log2)” value came to 0.139.

On to “HMSTQYKTGHYKTTDALNLRASYSTSSNVLLTIPKGKTIVVTRVHNNEWGQVEYNGKTGWIYLEYTAYTES”, for which the “soluble fraction (log2)” value was -1.85.

For the sequence “HMSTSAAELLRTARQQAGMSQSAVAELAKTSQSAIAMYEAGNREPSLPVLQRLLAATGHQLSLSVLP”, the “soluble fraction (log2)” value was -0.337.

Consider “HMSTTILSFQNRVVIETLHNEGRSLRYIANYLGFSKATIFNELHRLNSEYRAELAQADFERKVSQR”, for which the “soluble fraction (log2)” value was -3.06.

For the sequence “HMSTVAETVYNEIRDDILYGELQPGVKLKLEALRERYSVGVNTLREVLNRLVASGFVFVEGQKGFRVV”, the “soluble fraction (log2)” value is 0.365.

As to “HMSTVEKDSELGGNFRIASYPTGKGQISEAIRSMIVRAKQVGVNIRLNTEATEEPLRALAPNAVILATG”, the “soluble fraction (log2)” value came to 0.188.

For “HMSTVELPVQINGKVRGRITVPANAGQEDVKQAALADSKVQRYIEGASIRKVIVVPRKLVNIVV”, the “soluble fraction (log2)” value is -0.215.

“HMSTVTGLINYLSSGLIKGVGEATARKLVDHFGLDVLDIIQFNPQRLLEVDGIGEARAEMIASSFSEQK”: the “soluble fraction (log2)” value is -1.21.

“HMSVDIIPGKADQKVRLIHDPAIVGVTTGGVKTAGPHTLIQIELGPNERPYKRLSLLELIPEG”: the “soluble fraction (log2)” value was -0.347.

As for “HMSVDVGMQLRKLREERKISMRELARLSGLSANALSMIERGLTSPSVSTLNKLAGALEVPITAFFRI”, the “soluble fraction (log2)” value was -1.35.

Regarding “HMSVEVPNLIGKTLDQVDIDLKSLDLSFVILDSARYNSSFKPLSVIDHQPISGAKVKVNRKIYLTINPS”, the “soluble fraction (log2)” value is -0.411.

With “HMSVKIELNENEQAIFTAVQKVNEAVLPELRAQFSDMSNKAWDNSVKMLTKNNLLKVSKEGEILYIRM”, the “soluble fraction (log2)” value is -1.22.

With “HMSVKSVSLRKISYKVRRGDSLYNIAKNFSLSINDITHWNSINKKSYLQPGQRLTLYINPRN”, the “soluble fraction (log2)” value was -2.18.

Consider “HMSVKVFRDQILLNNDSDKMLQLSFSNLFGQKVLETSISPGKSAISTGNLPPGIYFITTSPATGVMRVII”, for which the “soluble fraction (log2)” value was -1.78.

For the sequence “HMSVLRLGNRGPDVRKLQLLLNSTLVPSPQLTVDGDFGKRTEQAVVTFQQMRGLPQDGIVGQRTWALLGQT”, the “soluble fraction (log2)” value is -0.652.

With “HMSVLSVASKNQAINPGQVVALLKDGIKLNDDGRVEILDNNNNIRYNEKGNLLSIEERVKEFLDANPHFRQ”, the “soluble fraction (log2)” value was -0.399.

Turning to “HMSVLVLPMLKELTHEDREVVELFYLNDMSVREIALIISVPIGTVKSRLHRARAQLKHQIVNLNQ”, the “soluble fraction (log2)” value is -3.76.

Consider “HMSVPVNAPMPGTILDIKVKAGAAVKAGDVVMILEAMKMENEISAPQDGTIASIDVRKGDTVNSGDVLYTM”, for which the “soluble fraction (log2)” value is -0.198.

With “HMSVSVNAPMPGNILDVRAKTGESIQKGQVIVILEAMKMENEIMAPQDGKISSINTSKGSTVNSGDLLFTM”, the “soluble fraction (log2)” value was -0.106.

“HMSVTMPNLVGLDEQTAVTRINSSNLSYGSTNYVHSDHEAGVVFKQSTPAYTEVDEHTKIYIWVSLGPEE”: the “soluble fraction (log2)” value was -0.729.

For the sequence “HMSVTPLLDATEKDKTKYRDLWLVAVVKNGVNYARKYKFGYVYAWLYRHDRDWLLQVNNQHKIPNIT”, the “soluble fraction (log2)” value stood at 0.0707.

For “HMSVTVMVLRAAGDIQAGTEITDKHLATVEVGEYGLPEGIINDKDSILGKIALTDIAKGDYFFSQKLG”, the “soluble fraction (log2)” value was -0.954.

Take “HMSVVKPIYIGMMTSEVEAIMGKPFEVITNNNSKNNQLWIYKYQDKRSVMLTFTNYKLIKIE”: the “soluble fraction (log2)” value was -2.7.

For the sequence “HMSWDNELLERAHKIIELYPQKRSALGPLLYLAQEKDGFISDDSIVEISNLVDITEVQVKSVSSFYSMY”, the “soluble fraction (log2)” value is -0.903.

As to “HMSWGDVKLTMWGAEEDQTMLREMADAFIEQNADKGNVTIEIGVQSESSAKDTVLADPESAADVFA”, the “soluble fraction (log2)” value is 0.242.

Regarding “HMSWRWVPVSGAYTTSALEAAGLTRAFDDQAAAEEWLGLFFDDLLREGVGEVSLYEEDRLVYGPMSL”, the “soluble fraction (log2)” value is -2.49.

Consider “HMSYANVEWRDFLNSLDEKYRIVVILYYVQGFKTREIAEILQINQSTVRGRLAKAREKLEQQYN”, for which the “soluble fraction (log2)” value was -1.4.

With “HMSYFIFDGVLNLGKQYELKGEESSHITKSRRLRPGDSFLIQDQEGQRFEAILKSFDRNSLIFTPHKPTA”, the “soluble fraction (log2)” value is -0.722.

Turning to “HMSYFNEYEVGDTIRVVNGPLADQISTITAIDKEKGLVNISTVFFGRENNVQVSINDIEKYN”, the “soluble fraction (log2)” value is 0.0153.

Regarding “HMSYGDLTGRTVVITGASKGIGARASRVLAQAGASVVGLARSVDELTALKYDLENDGLSFDFG”, the “soluble fraction (log2)” value is at least 1.04.

For the sequence “HMSYKYYSTERPLMPGSFPKPQGNTVLNIENFNDRSYVGKIGREAWGFIEYEKPISPVLLDDYELVAA”, the “soluble fraction (log2)” value was -0.235.

Take “HMSYLELENLAEDIKATYDNLSTDLREVFRLSDIEGLSYEEISNKMNIPIGTVRSRLHRARETLLRIFNN”: the “soluble fraction (log2)” value was -1.39.

With “HMSYPTAVTQTTLNVRTGPGTQYERLGAFVENTEVIVLTRQPEWIQVRGMSGDKAIIGWVSARYLQMNP”, the “soluble fraction (log2)” value was -2.21.

Take “HMSYQNKLNYLINAFGGADNFQKLLGVGPSAISNYKSRKHLPLNQAKRLSKIAPQFGFSLDPHSLQIST”: the “soluble fraction (log2)” value was -0.856.

Regarding “HMSYQSYDKVVGDTFFEANLKAESKFGKGNFEIISTRRVKHPIYLGFGHKELVELTIGIHDP”, the “soluble fraction (log2)” value was -1.33.

In the case of “HMSYTAYLSQELGDMSREIQSELLKKGYNGSSSFTIVRTYMGSSVKFSVYNANNGELITSKTINM”, the “soluble fraction (log2)” value was -2.9.

Take “HMSYTDIILKMSNVNFLTKVNFTNSEKNKNIKNGNFLIKKGKNRITAAFDYKDNELVISKSNLRNTFL”: the “soluble fraction (log2)” value was -1.18.

With “HMTAEVIYVDVGGEVNQPSVVELTDGSRVTDAIAAAGGLTEKADLTDINRAAFVSDGEKIFIPSQEE”, the “soluble fraction (log2)” value stood at 0.4.

On to “HMTAFAGLTPRERDLLELIAQGRDNAQIAATLGVSDKTVRNHITHIFAKLEVETRAQAIVLARNAGFGRA”, for which the “soluble fraction (log2)” value was -1.12.
